Among the data in patent publication US20260347449 (published 2026) are binding result and Kd values, retold here.

T1: cynomolgus C5 (cynomolgus)
T1 chain: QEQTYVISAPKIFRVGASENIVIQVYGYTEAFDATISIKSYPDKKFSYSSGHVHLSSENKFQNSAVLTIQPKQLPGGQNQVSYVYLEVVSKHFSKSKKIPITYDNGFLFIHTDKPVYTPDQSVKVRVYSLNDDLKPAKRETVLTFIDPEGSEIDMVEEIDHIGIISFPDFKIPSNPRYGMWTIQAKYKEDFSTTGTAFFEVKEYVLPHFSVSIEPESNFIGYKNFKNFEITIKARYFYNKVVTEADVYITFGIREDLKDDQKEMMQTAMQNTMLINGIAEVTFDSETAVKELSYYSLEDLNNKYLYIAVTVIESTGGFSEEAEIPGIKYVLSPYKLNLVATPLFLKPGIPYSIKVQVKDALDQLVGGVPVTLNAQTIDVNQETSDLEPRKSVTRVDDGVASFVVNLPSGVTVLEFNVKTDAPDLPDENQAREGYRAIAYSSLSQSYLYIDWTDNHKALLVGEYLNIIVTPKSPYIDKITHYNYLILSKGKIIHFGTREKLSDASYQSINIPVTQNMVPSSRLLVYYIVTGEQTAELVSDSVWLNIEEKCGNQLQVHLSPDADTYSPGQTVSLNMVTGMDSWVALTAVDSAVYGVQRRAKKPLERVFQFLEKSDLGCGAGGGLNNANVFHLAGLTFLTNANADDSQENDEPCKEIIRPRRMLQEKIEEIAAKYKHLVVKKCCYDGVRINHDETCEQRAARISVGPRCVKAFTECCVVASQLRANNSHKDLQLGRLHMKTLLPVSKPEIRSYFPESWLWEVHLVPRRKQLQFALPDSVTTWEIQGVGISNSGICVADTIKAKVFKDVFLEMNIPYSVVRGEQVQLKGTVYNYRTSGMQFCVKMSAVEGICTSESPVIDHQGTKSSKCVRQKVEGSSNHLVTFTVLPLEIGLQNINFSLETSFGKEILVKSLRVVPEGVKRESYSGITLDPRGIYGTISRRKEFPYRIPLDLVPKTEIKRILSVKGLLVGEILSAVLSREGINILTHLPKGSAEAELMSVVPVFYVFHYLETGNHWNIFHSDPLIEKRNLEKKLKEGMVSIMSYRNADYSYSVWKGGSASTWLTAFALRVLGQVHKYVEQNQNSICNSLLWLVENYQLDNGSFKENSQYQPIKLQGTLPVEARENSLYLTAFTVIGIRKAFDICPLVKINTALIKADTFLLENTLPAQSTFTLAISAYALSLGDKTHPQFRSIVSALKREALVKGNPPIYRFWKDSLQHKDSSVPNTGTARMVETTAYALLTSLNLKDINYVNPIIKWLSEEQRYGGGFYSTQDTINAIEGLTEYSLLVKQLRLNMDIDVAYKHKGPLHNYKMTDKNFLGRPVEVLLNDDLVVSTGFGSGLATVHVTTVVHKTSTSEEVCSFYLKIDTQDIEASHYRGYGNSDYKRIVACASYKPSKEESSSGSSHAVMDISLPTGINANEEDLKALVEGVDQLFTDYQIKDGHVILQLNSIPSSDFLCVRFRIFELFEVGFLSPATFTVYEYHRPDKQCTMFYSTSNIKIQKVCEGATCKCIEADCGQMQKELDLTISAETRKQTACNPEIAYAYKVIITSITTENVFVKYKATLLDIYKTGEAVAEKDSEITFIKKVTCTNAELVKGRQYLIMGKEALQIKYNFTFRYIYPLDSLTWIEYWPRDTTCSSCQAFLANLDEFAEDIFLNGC

B1: C3S3.2 (antibody, V domains shown)
VH: EVQLVESGGGLVQAGGSLRLSCAASGTIFSRNYMGWYRQAPGKERELVAGIGYGSSTNYADSVKGRFTISRDNSKNTLYLQMNSLRPEDTAVYYCAAVPTYRPYYFYWGQGTLVTVSS
B2: C3S3 (antibody, V domains shown)
VH: B1 VH with E1Q, V5Q, S74A, L78V, R86K, L113Q
B3: C3N10.3 (antibody, V domains shown)
VH: EVQLVESGGGLVQAGGSLRLACAASGLTFSPYAMGWFRQAPGKEREFVAGIRWISGNPYYADSVKGRFTISRDNSKNTLYLQMNSLRPEDTAVYSCAAAPLTRSYDYWGQGTLVTVSS
B4: C3N10 (antibody, V domains shown)
VH: B3 VH with E1D, S75A, L79V, R87K, L113Q
B5: eculizumab (antibody, V domains shown)
VH: QVQLVQSGAEVKKPGASVKVSCKASGYIFSNYWIQWVRQAPGQGLEWMGEILPGSGSTEYTENFKDRVTMTRDTSTSTVYMELSSLRSEDTAVYYCARYFFGSSPNWYFDVWGQGTLVTVSS
VL: DIQMTQSPSSLSASVGDRVTITCGASENIYGALNWYQQKPGKAPKLLIYGATNLADGVPSRFSGSGSGTDFTLTISSLQPEDFATYYCQNVLNTPLTFGQGTKVEIKR
B6: C3S5 (antibody, V domains shown)
VH: QVQLQESGGGLVQAGGSLRLSCAASGTIFDDESMGWYRQAPGKEREFVASINYGSTTYYADSVKGRFTISRDNAKNTVYLQMNSLKPEDTAVYYCAVGWSTNYDWTLSYYYWGQGTLVTVSS
B7: C3S10 (antibody, V domains shown)
VH: QVQLQESGGGLVQAGGSLRLSCAASGYISGGSIMGWYRQAPGKEREFVAGINQGSNTYYADSVKGRFTISRDNAKNTVYLQMNSLKPEDTAVYYCAVGGRSYYYHHYWGQGTQVTVSS
B8: C3S3.2-Fc (antibody, V domains shown)
VH: B1 VH
B9: C3N10.3-Fc (antibody, V domains shown)
VH: B3 VH
B10: C5S2 (antibody, V domains shown)
VH: QVQLQESGGGLVQAGGSLRLSCAASGNIFHQSDMGWYRQAPGKEREFVAAIDYGTNTYYADSVKGRFTISRDNAKNTVYLQMNSLKPEDTAVYYCAARDTSYWDHVYWGQGTQVTVSS
B11: C3I22 (antibody, V domains shown)
VH: DVQLVESGGGLVQPGGSLRLSCTASGFTFGVYAMSWVRQAPGKGLEWVSSIDSGVNTAYADSVKGRFTISRDNAINTVFLQMNSLKPEDTAVYHCALGRESDYEPVTGSWGQGTQVTVSS
B12: C3S6 (antibody, V domains shown)
VH: QVQLQESGGGLVQAGGSLRLSCAASGNIFVGHGMGWYRQAPGKEREFVAAIGYGAITNYADSVKGRFTISRDNAKNTVYLQMNSLKPEDTAVYYCAASSYYPPRYWYWGQGTLVTVSS
B13: C3I3 (antibody, V domains shown)
VH: DVQLVESGGGLVQPGGSLRLSCAASGFTLDNYAIAWFRQAPGKEREGVSCISSSRGSTAYEDSVKGRFTIARDNAKNTVYLQMNSLKPEDTAVYYCAARARGMCREFDYDYWGQGTQVTVSS
B14: C3I4 (antibody, V domains shown)
VH: DVQLVESGGGLVQPGGSLRLSCATSGFTLDYYAIGWFRQAPGKEREGVSCITGPDGSTHYADSVKGRFTISRDNAKNTVYLQMNSLKPEDTAVYYCAATAGLYGCGYGMDHWGKGTQVTVSS
B15: C3S8 (antibody, V domains shown)
VH: QVQLQESGGGLVQAGGSLRLSCAASGTIFPTDRMGWYRQAPGKEREFVATIDLGGTTNYADSVKGRFTISRDNAKNTVYLQMNSLKPEDTAVYYCAAAWEGPSRYGRHRYYSHRYWGQGTQVTVSS
B16: C3I8 (designed binder)
chain: DVQLVESGGGLVQPGGSLRLSCATSGFSFGVYDMSWVRQASGKGLEWVSGIDSGSNTAYADSVKVRFTISRDNAKNTLYLQMNNLKPEDTAVYYCALGRETDYIPVTDFRTQGTQVTVSS
B17: C5S8 (antibody, V domains shown)
VH: QVQLQESGGGLVQAGGSLRLSCAASGNIFDEWDMGWYRQAPGKEREFVAAIDDGASTYYADSVKGRFTISRDNAKNTVYLQMNSLKPEDTAVYYCAARQTYAWDYRYWGQGTQVTVSS
B18: C5S5 (antibody, V domains shown)
VH: QVQLQESGGGLVQAGGSLRLSCAASGTISPYEGMGWYRQAPGKERELVAAIDGGGITYYADSVKGRFTISRDNAKNTVYLQMNSLKPEDTAVYYCAAGIWTLSYYDYWGQGTQVTVSS
B19: C5S1 (antibody, V domains shown)
VH: QVQLQESGGGLVQAGGSLRLSCAASGYISYDDDMGWYRQAPGKEREFVAAIDVGGSTYYADSVKGRFTISRDNAKNTVYLQMNSLKPEDTAVYYCAVRDGYYWDHDYWGQGTQVTVSS

Positions count from the first letter of the chain named.

The first assay addresses T2, human C5 (human, UniProt P01031). The assay can be described thus: BLI. A general note: Biolayer interferometry detects binding as a change in optical thickness at a sensor tip.
As for B1, the binding result was “no binding”.
As to B2, the binding result is recorded as “no binding”.
Take B3: the binding result was “no binding”.
For the molecule B4, the binding result is “no binding”.

The target in the next assay is human C5 W917S (human, UniProt P01031). The assay can be described thus: BLI.
In the case of B5, the binding result is reported as “no binding”.

A further assay deals with T3, human C3 (human, UniProt P01024). Nature of the assay: ELISA. On the technique in general: ELISA stands for enzyme-linked immunosorbent assay.
Turning to B6, the binding result is “no binding”.
In the case of B7, the binding result was “no binding”.

A further assay concerns the target T3, human C3. The assay can be described thus: BLI, bivalent.
Take B8: the Kd amounted to 0.703 nM.
For the molecule B9, the Kd amounted to 3.25 nM.

The next assay has as its target T2, human C5. The assay can be described thus: BLI. This is another data set of the same source.
In turn, B10 gave a Kd of 6.29 nM.

In another assay the target is T3, human C3. Nature of the assay: BLI.
B1 had a Kd of 5.83 nM.
The same measure, in the same setting: then B2, with 4.97 nM; and B3, with 5.32 nM.
In the case of B4, the Kd came out at 3.64 nM.

For the next assay, the target named is T3, human C3. Nature of the assay: BLI. The source holds these as a separate data set.
In the case of B10, the binding result is on record as “no binding”.

The target in a further assay is T3, human C3. Nature of the assay: BLI. The source holds these as a separate data set.
With B1, the Kd came to 6 nM.
Turning to B3, the Kd was found to be 5 nM.

The target of another assay is T3, human C3. The assay can be described thus: BLI. This is another data set of the same source.
B2 gave a Kd of 23 nM.
Take B11: the Kd was found to be 3.9 nM.
Consider B12, for which the Kd was 20 nM.
For B13, the Kd turned out to be 17 nM.
Molecule B14 showed a Kd of 27 nM.
B15 had a Kd of 14 nM.
The molecule B4 came in with a Kd of 7.6 nM.
Same read-out and setting: then B16, with 4.8 nM.

A further assay addresses T1, cynomolgus C5. The assay can be described thus: BLI.
Take B1: the binding result is “no binding”.
On to B2, for which the binding result was “no binding”.
Same read-out and setting: then B10, with “no binding”; and B3, with “no binding”; and B4, with “no binding”.

For the next assay, the target named is T2, human C5. The assay can be described thus: BLI. This is another data set of the same source.
For the molecule B17, the Kd turned out to be 7 nM.
In the case of B10, the Kd stood at 1.98 nM.
On the same count and under the same terms, in the case of B18 it was 13 nM.
B19 showed a Kd of 9.5 nM.
